Laboratory results from publication PMC3019558 (The Journal of Cell Biology, 2011).
Each block holds one molecule with its values, some of them ahead of it.

Key:
[1] = molecular target: GDNF, NRTN, and ARTN; test: SPR
[2] = molecular target: HS-carrying extracellular domain of syndecan-3 purified from rat brain (rat, UniProt P33671 45-387, heparan sulfate (HS) chains); test: SPR
Chain of HS-carrying extracellular domain of syndecan-3 purified from rat brain (rat, UniProt P33671 45-387, heparan sulfate (HS) chains) (P33671 45-387): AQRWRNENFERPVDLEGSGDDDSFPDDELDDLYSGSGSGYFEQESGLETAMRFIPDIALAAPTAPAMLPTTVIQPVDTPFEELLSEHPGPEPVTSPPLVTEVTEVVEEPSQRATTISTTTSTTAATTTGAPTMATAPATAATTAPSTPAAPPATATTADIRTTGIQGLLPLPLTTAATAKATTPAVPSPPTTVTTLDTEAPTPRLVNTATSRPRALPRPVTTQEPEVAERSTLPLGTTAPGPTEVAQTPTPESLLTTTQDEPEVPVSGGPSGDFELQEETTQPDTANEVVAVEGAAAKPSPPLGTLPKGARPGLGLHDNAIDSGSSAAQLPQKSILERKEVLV

Kd [1]: 10 to 50 nM
Molecule: HS-carrying extracellular domain of syndecan-3 purified from rat brain (from UniProt P33671 45-387) (domain or fragment)

Kd [2]: > 70 nM
B1: persephin (PSPN) (ligand, UniProt O60542 61-156, looked up)
chain: ALSGPCQLWSLTLSVAELGLGYASEEKVIFRYCAGSCPRGARTQHGLALARLQGQGRAHGGPCCRPTRYTDVAFLDDRHRWQRLPQLSAAACGCGG
